Test results published in publication PMC8632965, “CD98-induced CD147 signaling stabilizes the Foxp3 protein to maintain tissue homeostasis” (Cellular and Molecular Immunology, 2021).

Target: CDK2 protein (purchased from Sino Biological Inc.) (UniProt P24941 1-298)
Test: SPR; CD147ICD immobilised on a CM5 chip; CDK2 injected at 30 µL/min; BSA signal subtracted
Conditions: both partners purified

Kd: 16.7 µM
B1: intracellular portion of CD147 (ICD, 230-269) (domain or fragment)
chain: EKRRKPEDVLDDDDAGSAPLKSSGQHQNDKGKNVRQRNSS
notes: CD147 (basigin), human, residues 230-269, intracellular portion; also called CD147’s intracellular domain; CD147’s intracellular segment; source: E. coli OrigamiB (DE3), purified (expressed and purified in the same way as for CD147)
